Data on 94 variants can be found in the supplement of paper PMC10567573.

To fix the notation:
B1: TPPP (parent)
chain: LCKDCQVIDGRNVTVTDVDIVFSK
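Note: lentivirally expressed fusions sorted by FACS into six bins by GFP to DsRed ratio, PSI derived from sequencing read proportions per bin multiplied by bin number.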

Variants of B1 are the subject of this data set. The data set can be described thus: protein stability index of a GFP-peptide fusion (GPS, HEK-293T) (PSI 1-6); higher = more stable. Conditions: c terminus: a fixed tail appended.
As for LCKDCDVIDGRNVTVTDVDIVFSK [Q6D], the protein stability index turned out to be 2.69.
For the variant LCKDCFVIDGRNVTVTDVDIVFSK [Q6F], the protein stability index came to 1.74.
With LCKDCVVIDGRNVTVTDVDIVFSK [Q6V], the protein stability index came to 2.14.
In the case of LCKDCGVIDGRNVTVTDVDIVFSK [Q6G], the protein stability index worked out at 2.78.
With LCKDCCVIDGRNVTVTDVDIVFSK [Q6C], the protein stability index turned out to be 2.09.
For LCKDCRVIDGRNVTVTDVDIVFSK [Q6R], the protein stability index came out at 2.8.
LVKDCQVIDGRNVTVTDVDIVFSK [C2V]: the protein stability index stood at 3.04.
Consider LCKDCQVIDGRNVMVTDVDIVFSK [T14M], for which the protein stability index came out at 1.6.
For LCKDCQVIDGRNVEVTDVDIVFSK [T14E], the protein stability index turned out to be 3.2.
The value for LCKDCQVIDGRNNTVTDVDIVFSK [V13N] was 2.6; that for LCKDCQVIDGRNETVTDVDIVFSK [V13E] was 3.59.
With LCKDCQVIDGRNSTVTDVDIVFSK [V13S], the protein stability index came to 3.12.
On to LCKDCQTIDGRNVTVTDVDIVFSK [V7T], for which the protein stability index is 2.87.
The figure for LCKDCQFIDGRNVTVTDVDIVFSK [V7F] is 2.33; for LCKDCQNIDGRNVTVTDVDIVFSK [V7N] it is 2.61.
In the case of LCKDCQMIDGRNVTVTDVDIVFSK [V7M], the protein stability index stood at 2.31.
Turning to LCKDCQAIDGRNVTVTDVDIVFSK [V7A], the protein stability index was 2.61.
Consider LCKDCQVIDGRNVTVTDVDIVNSK [F22N], for which the protein stability index is 3.66.
As to LCKDCQVIDGRNVTVTDVDIVSSK [F22S], the protein stability index was 2.78.
For the variant LCKDCQVIDGRNVTVTDVDIVDSK [F22D], the protein stability index was determined as 3.96.
Regarding LCKDCQVIDGRNVTVTDVDIVASK [F22A], the protein stability index amounted to 2.5.
In the case of LCKDCQVIDGRNVTVTDVDIVQSK [F22Q], the protein stability index came out at 3.59.
For the variant LCKDCQVIDGRNVTVTDVDIVPSK [F22P], the protein stability index was determined as 3.47.
The figure for LCKDCQVIDGRNVTVTDVDIVFSW [K24W] is 2.25; for LCKDCQVIDGRNVTVTDVDIVFSS [K24S] it is 2.44.
LCKDCQVIDGRNVTVTDVDIVFSA [K24A]: the protein stability index is 2.24.
With LCKDCQVIDGRNVTVTDVDIVFSD [K24D], the protein stability index was determined as 2.77.
As for LCKDCQVIDGRNVTVTDVDIVFSR [K24R], the protein stability index came to 2.39.
Turning to LCKDCQVIDGRNVTVTDVDIVFSQ [K24Q], the protein stability index came out at 2.35.
As to LCKDCQVIDGANVTVTDVDIVFSK [R11A], the protein stability index was found to be 2.54.
For the variant LCKDCQVIDGNNVTVTDVDIVFSK [R11N], the protein stability index was 2.85.
On to LCKDCQVIDGPNVTVTDVDIVFSK [R11P], for which the protein stability index came to 2.57.
The figure for LCKDCQVIDGMNVTVTDVDIVFSK [R11M] is 2.16.
Turning to LCKDCQVIDGCNVTVTDVDIVFSK [R11C], the protein stability index was found to be 2.35.
In the case of LCKDCQVIDGENVTVTDVDIVFSK [R11E], the protein stability index was 2.9.
As to LCKDCQVIDGWNVTVTDVDIVFSK [R11W], the protein stability index amounted to 1.78.
For LCKDCQVIDGTNVTVTDVDIVFSK [R11T], the protein stability index was found to be 2.35.
Regarding LCKDCQVIDGHNVTVTDVDIVFSK [R11H], the protein stability index worked out at 2.15.
Take LCKDSQVIDGRNVTVTDVDIVFSK [C5S]: the protein stability index was determined as 4.01.
As for LCKDYQVIDGRNVTVTDVDIVFSK [C5Y], the protein stability index amounted to 2.94.
Turning to LCKDKQVIDGRNVTVTDVDIVFSK [C5K], the protein stability index is 3.84.
For the variant LCKDDQVIDGRNVTVTDVDIVFSK [C5D], the protein stability index worked out at 4.39.
LCKDLQVIDGRNVTVTDVDIVFSK [C5L]: the protein stability index was 3.16.
The value for LCKDCQVIDGRNVTVTRVDIVFSK [D17R] was 2.92; that for LCKDCQVIDGRNVTVTHVDIVFSK [D17H] was 2.48.
Take LCKDCQVIDGRNVTVTTVDIVFSK [D17T]: the protein stability index stood at 1.69.
The value for LCKDCQVIDGRNVTVTMVDIVFSK [D17M] was 2.29.
The value for LCKDCQVIDGRNVTVTGVDIVFSK [D17G] was 2.14; that for LCKDCQVIDGRNVTVTNVDIVFSK [D17N] was 1.45.
On to LCKDCQVIDGRNVTVTQVDIVFSK [D17Q], for which the protein stability index is 1.77.
As to LCKDCQVIDGRNVTVTYVDIVFSK [D17Y], the protein stability index worked out at 2.97.
In the case of LCKDCQVIDGRNVTVTIVDIVFSK [D17I], the protein stability index was 3.91.
On to LCKDCQVIDGRNVTVTDKDIVFSK [V18K], for which the protein stability index amounted to 2.77.
As to LCKDCQVIDGRNVTVTDADIVFSK [V18A], the protein stability index was 2.9.
For the variant LCKDCQVIDGRNVTVTDRDIVFSK [V18R], the protein stability index came out at 3.06.
For LCKDCQVIDGRNVTVTDIDIVFSK [V18I], the protein stability index came to 2.44.
Consider LCKDCQVIDGRNVTVYDVDIVFSK [T16Y], for which the protein stability index amounted to 1.3.
Take LCKDCQVIDGRNVTVDDVDIVFSK [T16D]: the protein stability index worked out at 3.37.
With LCKDCQVIDGRNVTVIDVDIVFSK [T16I], the protein stability index was 3.14.
The figure for LCKDCQVIDGRNVTVMDVDIVFSK [T16M] is 1.48.
Turning to LCKDCQVIDGRNVTVPDVDIVFSK [T16P], the protein stability index worked out at 2.23.
For LCKDCQVIDGRNVTVGDVDIVFSK [T16G], the protein stability index is 2.01.
In the case of LCKDCQVIDGRNVTVHDVDIVFSK [T16H], the protein stability index was 2.44.
With LCKDCQVIDGRHVTVTDVDIVFSK [N12H], the protein stability index turned out to be 2.65.
Take LCKDCQVIDGRPVTVTDVDIVFSK [N12P]: the protein stability index is 2.4.
As for LCKDCQVIDGREVTVTDVDIVFSK [N12E], the protein stability index came out at 3.88.
As for LCKKCQVIDGRNVTVTDVDIVFSK [D4K], the protein stability index was 2.31.
The value for LCKPCQVIDGRNVTVTDVDIVFSK [D4P] was 2.25; that for LCKGCQVIDGRNVTVTDVDIVFSK [D4G] was 2.42; that for LCKDCQVIDGRNVTVTDVDIVFKK [S23K] was 3.58.
LCKDCQVIDGRNVTVTDVDIVFLK [S23L]: the protein stability index is 1.82.
The value for LCKDCQVIDGRNVTVTDVDIVFQK [S23Q] was 2.6; that for LCKDCQVIDGRNVTVTDVDIVFEK [S23E] was 3.28.
Turning to LCKDCQVIDGRNVTVTDVDIVFFK [S23F], the protein stability index amounted to 1.58.
For the variant LCKDCQVIDGRNVTVTDVDIVFRK [S23R], the protein stability index was found to be 2.35.
The value for LCKDCQVDDGRNVTVTDVDIVFSK [I8D] was 3.97.
The figure for LCKDCQVPDGRNVTVTDVDIVFSK [I8P] is 3.19.
The figure for LCKDCQVSDGRNVTVTDVDIVFSK [I8S] is 2.79; for LCKDCQVTDGRNVTVTDVDIVFSK [I8T] it is 3.12; for LCKDCQVLDGRNVTVTDVDIVFSK [I8L] it is 2.24.
In the case of LCKDCQVNDGRNVTVTDVDIVFSK [I8N], the protein stability index came out at 2.35.
On to LCKDCQVGDGRNVTVTDVDIVFSK [I8G], for which the protein stability index came to 2.54.
For the variant LCKDCQVIDGRNVTVTDVDIEFSK [V21E], the protein stability index was determined as 3.88.
As to LCKDCQVIDGRNVTVTDVDIRFSK [V21R], the protein stability index amounted to 2.46.
Consider LCKDCQVIDGRNVTVTDVDIYFSK [V21Y], for which the protein stability index turned out to be 2.08.
The figure for LCKDCQVIDGRNVTVTDVDIQFSK [V21Q] is 2.15.
Take LCKDCQVIDGRNVTVTDVDIAFSK [V21A]: the protein stability index was 3.47.
As to LCKDCQVIDGRNVTVTDVDIHFSK [V21H], the protein stability index was 2.65.
LCKDCQVIDGRNVTSTDVDIVFSK [V15S]: the protein stability index was 2.48.
The value for LCKDCQVIDGRNVTCTDVDIVFSK [V15C] was 2.62; that for LCKDCQVIDGRNVTQTDVDIVFSK [V15Q] was 2.92; that for LCKDCQVIDGRNVTATDVDIVFSK [V15A] was 2.6.
On to LCKDCQVIDGRNVTLTDVDIVFSK [V15L], for which the protein stability index turned out to be 2.28.
The value for LCKDCQVIDGRNVTMTDVDIVFSK [V15M] was 1.97.
